# Reference: paper PMC3457783
# Target: TRα1PV (mutated thyroid hormone receptor α1 carrying the PV mutation) (UniProt P10827)
# Experiment: co-IP
substance,measurement,value
"nuclear receptor corepressor, NCoR1 (from UniProt Q60974 1-2453) (natural protein)",fold NCoR1 co-precipitated relative to TRβ1PV (before induction),1.6 fold
same,fold NCoR1 co-precipitated relative to TRβ1PV (day 6 after induction),2 fold
